The labels stand for the following.
B1: human VEGF-A (ligand, UniProt P15692-4 27-191, looked up)
chain: APMAEGGGQNHHEVVKFMDVYQRSYCHPIETLVDIFQEYPDEIEYIFKPSCVPLMRCGGCCNDEGLECVPTEESNITMQIMRIKPHQGQHIGEMSFLQHNKCECRPKKDRARQENPCGPCSERRKHLFVQDPQTCKCSCKNTDSRCKARQLELNERTCRCDKPRR
notes: Recombinant, bought or produced in CHO or Pichia pastoris; also called hVEGF-A

For assay [1], the target named is T1, human HGF (human, UniProt P14210 32-728).
T1 construct: also called hepatocyte growth factor
Description: SPR (ProteOn), human HGF immobilised, injection scheme PBST-hVEGF-A-PBST. The method, then:
FIG. 8. SPR analysis of recombinant binding proteins. […] The control injections indicate that no unspecific interaction occurs. RU: resonance units; t: time in seconds.
SPR was measured in a similar way as described in Example 2, with the following setup. 2700 RU human HGF were immobilized on a sensor chip. […] Following this, 100 nM human VEGF-A or PBST were injected for 180 seconds (leading to saturation) followed by a PBST wash of 360 seconds. Finally, 100 nM human serum albumin or PBST were injected for 180 seconds followed by a PBST wash of 600 seconds.

For the next assay, the target named is T2, Human PDGF-AB (human, UniProt P04085 87-211; P01127 82-190, limits assumed).
T2 construct: Heterodimer by its name
Description: ELISA, immobilised target.

For another assay, the target named is T3, Human VEGF-C (human, UniProt P49767 103-227, limits assumed).
T3 sequence (looked up): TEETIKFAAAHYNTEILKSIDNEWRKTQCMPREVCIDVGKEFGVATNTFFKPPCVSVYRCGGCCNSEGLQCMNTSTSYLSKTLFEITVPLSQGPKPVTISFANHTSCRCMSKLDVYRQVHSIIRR
In words: ELISA, immobilised target. (In general: ELISA stands for enzyme-linked immunosorbent assay.)

In assay [2] the target is B1. Description: ELISA, immobilised target.
Assay [3] deals with B1. In words: VEGF-A competition binding ELISA (FIG. 7C). The method, then:
(§1) After washing away any unbound substances, an enzyme-linked polyclonal antibody specific for VEGF-A is added to the wells. Following a wash to remove any unbound antibody-enzyme reagent, a substrate solution is added to the wells and color develops in proportion to the amount of VEGF-A bound in the initial step. The color development is stopped and the intensity of the color is measured. […] IC₅₀ values were calculated from such titration curves obtained as described above using Graph Pad Prism software and standard procedures known to the person skilled in the art. For designed ankyrin repeat domains with binding specificity to HGF, a cMet receptor competition assay was performed. For that purpose, 5 nM of human cMet receptor in PBS were immobilized on Maxisorp plates overnight at 4° C. After washing with PBS 0.05% TWEEN 20, the plate was blocked for 2 h with shaking at 300 rpm using PBS containing 0.05% TWEEN 20 and 0.25% Casein at RT. A constant concentration of 5 nM human HGF was pre-incubated for 30 min at RT with a 1000 nM-1 pM of Proteins #23, #26, #28, and #29 (1:4 dilution series each) on a dilution plate in PBS 0.05% TWEEN 20. After washing of the ELISA plate with PBS 0.05% TWEEN, pre-incubated samples were transferred to the ELISA plate and plate was incubated for 2 h at RT with shaking at 300 rpm. […] Readout was done at A450 using A620 as reference wavelength. […]

Assay [4] addresses T1, human HGF. In words: HGF/cMet competition ELISA as in Example 3. Here is the method: as §1
Assay [5] deals with biotinylated VEGF-A165 (Reliatech, #300-076Bi-L) (UniProt P15692-4 27-191, biotinylated). Description: VEGF-A/VEGFR-2 competition FRET (HTRF); 10 nM VEGF-R2-Fc, 10 nM biotinylated VEGF-A165. The method, then:
Such competition FRET and ELISA assays are well known to the person skilled in the art. […] In parallel, 5 μl of Streptavidin-Tb (streptavidin-Lumi4-terbium cryptate donor, Cisbio #610SATLB) and 5 μl of PAb anti-hIgG-de (D2-conjugated goat anti-Human IgG, Cisbio #61 HFCDAA) were added to 500 μl of PBST-BSA buffer and incubated for 20 minutes (2× reagent). Ten μl/well of 2× reagent were dispensed in a 384-well HTRF white-plate (Thermo Fisher Scientific Inc.) and 5 μl/well of four-time concentration hVEGF-R2-Fc fusion (Reliatech #SFC-008) were added. Five μl of the preincubated competition mixture were then added to wells. The complete reaction mix was incubated in the dark for 1 hour at room temperature before the fluorescence read out using a fluorescence reader. […] The read-out was done for A665 nm and […] wavelength (Excitation 340 nm).
For orientation: TR-FRET usually uses a lanthanide donor and a delayed reading to cut background.

Assay [6] has as its target B1. Description: cell-based or functional assay.
Assay [7] deals with T1, human HGF. In words: cell-based or functional assay.
Another assay has as its target T4, human serum albumin (human, UniProt P02768 25-609).
T4 construct: For SEC-MALS purified from CSL Behring 20% solution; also called HSA; SA (human)
Description: ELISA, immobilised target. Here is the method:
(§2) 100 μl or 50 μl of 20 nM target (VEGF-A, HGF, or serum albumin) in PBS per well were immobilized in a Maxisorp plate (Nunc, Denmark) overnight at 4° C. After washing 5 times with 300 μl PBST (PBS supplemented with 0.1% Tween 20), the wells were blocked with 300 μl PBST-C (PBST supplemented with 0.25% casein) for 2 h at room temperature with shaking at 450 rpm on a Titramax 1000 shaker (Heidolph, Germany). […] After washing 5 times as described above, bound anti-designed ankyrin repeat domain antibody was detected using 100 μl or 50 μl/well goat anti-rabbit IgG-HRP conjugate in PBST-C for 1 h at room temperature with shaking at 450 rpm. After washing 5 times as described above, the ELISA was then developed using 100 μl BM soluble blue POD substrate (Roche, Switzerland), diluted 1:4 in water. The reaction was stopped after 5 min using 100 μl 1 M H₂SO₄. The OD (OD 450 nm-OD 620 nm) was then recorded.
(§3) Cynomolgus monkey VEGF-A is identical to human VEGF-A and was thus not tested separately.

The target in the next assay is mouse HGF (mouse, UniProt Q08048 33-728). Description: ELISA, immobilised target. The method, then:
as §2, §3

The target of another assay is cynomolgus monkey HGF (cynomolgus monkey, UniProt C9E9X5 32-728). In words: ELISA, immobilised target. The method, then: as §2, §3
The target of the next assay is T5, mouse VEGF-A (mouse, UniProt Q00731-2 27-190, limits assumed).
T5 sequence (looked up): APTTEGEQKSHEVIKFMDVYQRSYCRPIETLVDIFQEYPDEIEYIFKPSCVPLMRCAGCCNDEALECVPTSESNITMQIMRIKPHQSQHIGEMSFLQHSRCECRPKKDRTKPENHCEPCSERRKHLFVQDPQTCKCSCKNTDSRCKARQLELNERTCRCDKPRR
In words: ELISA, immobilised target. The method, then:
as §2, §3

In assay [8] the target is cynomolgus monkey serum albumin (cynomolgus monkey, UniProt A2V9Z4 25-608). In words: ELISA, immobilised target. Here is the method: as §2, §3
Another assay addresses T6, rat VEGF-A (rat, UniProt P16612-2 27-190, limits assumed).
T6 sequence (looked up): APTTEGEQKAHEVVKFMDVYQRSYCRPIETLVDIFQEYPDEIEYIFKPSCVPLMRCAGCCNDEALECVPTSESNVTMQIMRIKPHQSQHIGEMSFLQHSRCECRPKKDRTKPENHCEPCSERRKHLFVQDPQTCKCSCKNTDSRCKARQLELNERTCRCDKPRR
In words: ELISA, immobilised target. The method, then: as §2, §3

For assay [9], the target named is B1. Description: ELISA, immobilised target. The method, then:
as §2, §3
The source holds these as a separate data set.

Another assay deals with dog serum albumin (dog, UniProt P49822 25-608). In words: ELISA, immobilised target. The method, then:
as §2, §3

Another assay addresses rat serum albumin (rat, UniProt P02770 25-608). Description: ELISA, immobilised target. Here is the method: as §2, §3
The target in another assay is mouse serum albumin (mouse, UniProt P07724 25-608). Description: ELISA, immobilised target. The method, then: as §2, §3
The target in assay [10] is T1, human HGF. Description: ELISA, immobilised target. The method, then: as §2, §3
For assay [11], the target named is B1. In words: VEGF-A competition ELISA as in Example 3; competitor: immobilised anti-VEGF-A monoclonal antibody. The method, then: as §1

Where “and” joins values, the source holds several entries; their conditions need not be identical. Equal entries are not always repeated. Where two headings read alike, the source gives them in different places. Where only a bound is given, the exact number is not on record here.

Broadly, the EC50 is the concentration at which the effect is half-maximal. One may read the IC50 as the midpoint of a concentration-inhibition curve.

T1 sequence (P14210 32-728 limits assumed): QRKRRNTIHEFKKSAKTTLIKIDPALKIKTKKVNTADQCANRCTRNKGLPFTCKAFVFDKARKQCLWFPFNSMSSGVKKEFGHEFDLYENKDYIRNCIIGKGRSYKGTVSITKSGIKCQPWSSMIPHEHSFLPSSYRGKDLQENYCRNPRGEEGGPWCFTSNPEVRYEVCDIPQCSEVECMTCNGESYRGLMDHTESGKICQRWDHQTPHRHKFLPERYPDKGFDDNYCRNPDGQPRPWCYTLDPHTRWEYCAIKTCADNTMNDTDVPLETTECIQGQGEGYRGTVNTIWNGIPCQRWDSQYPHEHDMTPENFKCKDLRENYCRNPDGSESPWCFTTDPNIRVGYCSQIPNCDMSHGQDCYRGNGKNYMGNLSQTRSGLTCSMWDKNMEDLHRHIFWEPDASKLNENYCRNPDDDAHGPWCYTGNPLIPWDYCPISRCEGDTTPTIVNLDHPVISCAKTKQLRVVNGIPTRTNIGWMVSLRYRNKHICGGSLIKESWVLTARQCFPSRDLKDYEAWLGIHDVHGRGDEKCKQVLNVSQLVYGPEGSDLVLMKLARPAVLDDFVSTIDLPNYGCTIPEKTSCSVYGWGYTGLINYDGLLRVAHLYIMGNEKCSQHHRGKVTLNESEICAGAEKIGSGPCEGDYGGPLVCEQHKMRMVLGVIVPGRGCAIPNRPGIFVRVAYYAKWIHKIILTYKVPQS
T4 sequence (P02768 25-609 limits assumed): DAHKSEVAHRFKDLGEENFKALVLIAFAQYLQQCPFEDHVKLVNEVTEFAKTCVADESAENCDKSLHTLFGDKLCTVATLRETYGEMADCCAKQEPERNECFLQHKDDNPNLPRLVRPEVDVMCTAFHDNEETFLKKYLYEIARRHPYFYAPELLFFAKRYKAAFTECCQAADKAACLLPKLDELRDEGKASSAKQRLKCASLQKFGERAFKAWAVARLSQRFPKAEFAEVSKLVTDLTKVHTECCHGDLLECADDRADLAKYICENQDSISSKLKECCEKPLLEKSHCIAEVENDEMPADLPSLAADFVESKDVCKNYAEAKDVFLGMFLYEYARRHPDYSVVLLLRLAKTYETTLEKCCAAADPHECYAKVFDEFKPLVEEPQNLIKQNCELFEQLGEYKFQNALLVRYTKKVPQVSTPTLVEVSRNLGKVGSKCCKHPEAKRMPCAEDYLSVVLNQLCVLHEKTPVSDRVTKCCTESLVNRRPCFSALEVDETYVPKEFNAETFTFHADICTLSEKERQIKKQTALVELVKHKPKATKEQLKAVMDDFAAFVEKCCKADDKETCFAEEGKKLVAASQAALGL
cynomolgus monkey serum albumin, sequence (A2V9Z4 25-608 limits assumed): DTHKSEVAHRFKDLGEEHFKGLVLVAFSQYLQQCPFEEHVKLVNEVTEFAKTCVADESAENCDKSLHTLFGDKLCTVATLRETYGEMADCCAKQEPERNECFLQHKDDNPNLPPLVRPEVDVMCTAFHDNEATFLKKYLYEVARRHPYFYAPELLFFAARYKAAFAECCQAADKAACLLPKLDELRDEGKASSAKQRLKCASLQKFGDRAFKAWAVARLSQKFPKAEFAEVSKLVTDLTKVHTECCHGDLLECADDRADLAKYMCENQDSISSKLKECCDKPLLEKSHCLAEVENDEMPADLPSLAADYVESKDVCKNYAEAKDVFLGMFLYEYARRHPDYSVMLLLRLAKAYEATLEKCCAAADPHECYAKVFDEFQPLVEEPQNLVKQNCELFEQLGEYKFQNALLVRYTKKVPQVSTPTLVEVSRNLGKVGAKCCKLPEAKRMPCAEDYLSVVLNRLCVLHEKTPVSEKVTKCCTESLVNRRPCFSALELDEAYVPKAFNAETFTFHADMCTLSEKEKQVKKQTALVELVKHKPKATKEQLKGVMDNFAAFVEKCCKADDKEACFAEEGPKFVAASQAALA
mouse HGF, sequence (Q08048 33-728 limits assumed): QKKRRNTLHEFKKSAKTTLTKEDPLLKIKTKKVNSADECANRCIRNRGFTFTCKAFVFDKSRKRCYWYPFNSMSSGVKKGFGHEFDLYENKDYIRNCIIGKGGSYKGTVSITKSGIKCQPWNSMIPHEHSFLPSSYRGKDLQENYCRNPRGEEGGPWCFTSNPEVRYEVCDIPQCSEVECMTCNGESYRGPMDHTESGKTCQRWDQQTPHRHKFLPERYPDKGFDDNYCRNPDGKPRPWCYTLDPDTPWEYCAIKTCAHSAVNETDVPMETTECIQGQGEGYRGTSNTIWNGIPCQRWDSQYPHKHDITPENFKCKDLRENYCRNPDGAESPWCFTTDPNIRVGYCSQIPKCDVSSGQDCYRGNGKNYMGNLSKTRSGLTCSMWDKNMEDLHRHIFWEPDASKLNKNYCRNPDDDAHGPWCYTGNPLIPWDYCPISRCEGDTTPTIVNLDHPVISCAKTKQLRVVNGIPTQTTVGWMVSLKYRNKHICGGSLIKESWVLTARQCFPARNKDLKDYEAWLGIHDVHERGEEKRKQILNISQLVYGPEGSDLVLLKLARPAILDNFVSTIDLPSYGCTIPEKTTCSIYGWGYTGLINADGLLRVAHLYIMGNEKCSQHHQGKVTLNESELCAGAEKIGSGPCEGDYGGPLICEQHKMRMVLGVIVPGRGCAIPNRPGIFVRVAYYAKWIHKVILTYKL
T2 sequence (P01127 82-190 limits assumed, chain 2 of 2, other chains not shown): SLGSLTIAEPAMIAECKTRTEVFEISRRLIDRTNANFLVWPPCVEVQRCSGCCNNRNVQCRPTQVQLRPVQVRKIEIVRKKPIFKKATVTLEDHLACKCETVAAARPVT
dog serum albumin, sequence (P49822 25-608 limits assumed): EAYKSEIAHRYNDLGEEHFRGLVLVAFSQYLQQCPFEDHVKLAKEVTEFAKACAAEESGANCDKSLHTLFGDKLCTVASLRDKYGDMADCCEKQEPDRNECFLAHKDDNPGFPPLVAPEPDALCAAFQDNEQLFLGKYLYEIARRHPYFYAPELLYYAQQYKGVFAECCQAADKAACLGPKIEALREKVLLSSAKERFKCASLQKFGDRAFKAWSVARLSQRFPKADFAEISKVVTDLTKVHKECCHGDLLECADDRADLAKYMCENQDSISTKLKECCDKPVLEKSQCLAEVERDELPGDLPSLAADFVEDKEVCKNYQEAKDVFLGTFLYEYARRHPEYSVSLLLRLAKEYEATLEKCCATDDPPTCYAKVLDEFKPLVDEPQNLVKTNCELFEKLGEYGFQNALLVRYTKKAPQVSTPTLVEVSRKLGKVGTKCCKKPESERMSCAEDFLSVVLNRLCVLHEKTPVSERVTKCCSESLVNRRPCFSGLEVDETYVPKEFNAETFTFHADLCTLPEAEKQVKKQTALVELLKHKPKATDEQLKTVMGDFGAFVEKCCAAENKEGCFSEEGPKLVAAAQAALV
rat serum albumin, sequence (P02770 25-608 limits assumed): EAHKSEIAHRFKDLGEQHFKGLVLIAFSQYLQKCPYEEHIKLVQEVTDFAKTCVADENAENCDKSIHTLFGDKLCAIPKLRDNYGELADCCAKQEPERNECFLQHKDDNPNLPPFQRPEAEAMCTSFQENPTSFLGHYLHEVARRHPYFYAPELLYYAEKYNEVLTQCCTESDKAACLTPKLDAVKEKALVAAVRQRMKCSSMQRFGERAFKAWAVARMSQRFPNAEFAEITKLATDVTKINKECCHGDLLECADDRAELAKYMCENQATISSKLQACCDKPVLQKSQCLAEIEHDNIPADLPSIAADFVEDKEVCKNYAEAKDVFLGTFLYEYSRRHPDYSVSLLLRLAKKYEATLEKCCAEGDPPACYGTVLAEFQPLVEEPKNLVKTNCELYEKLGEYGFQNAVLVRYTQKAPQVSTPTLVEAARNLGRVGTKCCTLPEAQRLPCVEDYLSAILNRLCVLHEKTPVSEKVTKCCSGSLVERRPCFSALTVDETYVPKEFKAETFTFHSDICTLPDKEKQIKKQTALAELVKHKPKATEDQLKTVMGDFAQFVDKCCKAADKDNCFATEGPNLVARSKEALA

B1: the binding result with human HGF [1] is on record as “no binding (tested: 100 nM)”.

B2: Protein #134 (designed binder)
chain: GSDLGKKLLEAARAGQDDEVRELLKAGADVNAKDYFSHTPLHLAARNGHLKIVEVLLKAGADVNAKDFAGKTPLHLAANEGHLEIVEVLLKAGADVNAQDIFGKTPADIAADAGHEDIAEVLQKAAGSPTPTPTTPTPTPTTPTPTPTGSDLGKKLLEAARAGQDDEVRILLKAGADVNAKDRYGDTPLHLAADIGHLEIVEVLLKAGADVNAEDYFGNTPLHLAASYGHLEIVEVLLKAGADVNAKDDYGNTPLHLAANTGHLEIVEVLLKAGADVNAQDKSGKTPADLAADAGHEDIAEVLQKAAGSPTPTPTTPTPTPTTPTPTPTGSDLDKKLLEAARAGQDDEVRILLKAGADVNAKDSTGWTPLHLAAPWGHPEIVEVLLKAGADVNAKDFQGWTPLHLAAAAGHLEIVEVLLKAGADVNAQDKSGKTPADLAADAGHEDIAEVLQKAAGSPTPTPTTPTPTPTTPTPTPTGSDLGKKLLEAARAGQDDEVRELLKAGADVNAKDYFSHTPLHLAARNGHLKIVEVLLKAGADVNAKDFAGKTPLHLAANEGHLEIVEVLLKAGADVNAQDIFGKTPADIAADAGHEDIAEVLQKAA
notes: Four designed ankyrin repeat domains (serum albumin, HGF, VEGF-A, serum albumin); one molecule is used here
Regarding B2, the binding result with Human PDGF-AB and in the assay with Human VEGF-C was “no binding (tested: 100 nM to 0.01 pM)” each time. In addition, the concentration for a half-maximal effect (EC50) came out at 0.024 nM with human VEGF-A [2]; 0.013 nM with human serum albumin; 0.045 nM with mouse HGF; 0.04 nM with cynomolgus monkey HGF; 0.021 nM with mouse VEGF-A; 0.017 nM in [8]. Besides, the EC50 in the assay with rat VEGF-A stood at 0.022 nM; with human VEGF-A [9], 0.024 nM; in the assay with dog serum albumin it was 0.023 nM; in the assay with rat serum albumin it was 0.017 nM; with mouse serum albumin it was 0.015 nM; with human HGF [10] it was 0.024 nM. Further, the IC50 with human VEGF-A [3] is under 0.01 nM; with human HGF [4], 0.92 nM; in [5] it was 0.6 nM; with human VEGF-A [11], 4.5 pM. In the assay with human VEGF-A [6], the “Inhibition of VEGF-A-induced HUVEC proliferation, IC50” value was 5.7 ng/ml and 91.3 pM. In the assay with human VEGF-A [6], the “inhibition of proliferation of HUVECs, IC50” value was 0.1 to 0.15 nM. Besides, the “Inhibition of cMet phosphorylation in A549 cells, IC50” value in the assay with human HGF [7] was 184 pM. The “inhibition of cMet phosphorylation in A549 cells, IC50” value in the assay with human HGF [7] is under 1 nM.

(Values after patent US20160289285A1 (Molecular Partners, published 2016).)
